Laboratory results taken from patent publication US20180038860A1 (published 2018).
Where two headings read alike, the source gives them in different places. Bridge positions count the residues as written; N and C are the ends. Side chains are listed from the residue outwards. * marks the point of attachment. Biotin = O=C1N[C@H]2[C@H](CS[C@H]2CCCCC(=O)*)N1; AEEA = NCCOCCOCC(=O)O

Assays:
Experiment in all cases: cell-based or functional assay
hCCR7 (human) = hCCR7 (human) (UniProt P32248)
[1] = target: T1, CCR6 on lymphocytes in blood of healthy donors (human) (UniProt P51684)
T1 sequence (looked up): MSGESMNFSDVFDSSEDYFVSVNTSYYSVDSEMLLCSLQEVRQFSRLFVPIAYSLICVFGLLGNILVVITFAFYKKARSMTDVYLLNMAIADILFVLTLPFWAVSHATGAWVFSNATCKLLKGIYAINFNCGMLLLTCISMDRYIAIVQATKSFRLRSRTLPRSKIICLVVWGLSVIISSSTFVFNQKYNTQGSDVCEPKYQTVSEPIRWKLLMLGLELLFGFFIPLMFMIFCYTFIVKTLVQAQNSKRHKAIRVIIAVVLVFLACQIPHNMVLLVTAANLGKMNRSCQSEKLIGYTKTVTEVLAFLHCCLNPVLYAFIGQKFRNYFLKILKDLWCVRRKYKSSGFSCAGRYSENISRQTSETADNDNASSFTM

hCCR6 (human) = target: T2, hCCR6 (human) (UniProt P51684)
T2 sequence (looked up): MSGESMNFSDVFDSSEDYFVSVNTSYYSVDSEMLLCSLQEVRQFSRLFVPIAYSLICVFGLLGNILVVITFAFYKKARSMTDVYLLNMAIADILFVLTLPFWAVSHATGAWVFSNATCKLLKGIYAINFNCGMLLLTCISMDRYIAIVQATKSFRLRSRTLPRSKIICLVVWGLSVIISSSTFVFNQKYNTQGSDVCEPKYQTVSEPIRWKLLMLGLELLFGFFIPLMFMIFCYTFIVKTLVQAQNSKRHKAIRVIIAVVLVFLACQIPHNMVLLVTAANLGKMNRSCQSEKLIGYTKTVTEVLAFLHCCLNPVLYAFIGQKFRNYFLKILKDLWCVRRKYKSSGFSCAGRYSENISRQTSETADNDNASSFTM

hCXCR3 (human) [2] = target: hCXCR3 (human) (UniProt P49682)
hCCR9 (human) = hCCR9 (human) (UniProt P51686)
hCCR4 = target: T3, hCCR4 (human, UniProt P51679 1-360)
T3 sequence (looked up): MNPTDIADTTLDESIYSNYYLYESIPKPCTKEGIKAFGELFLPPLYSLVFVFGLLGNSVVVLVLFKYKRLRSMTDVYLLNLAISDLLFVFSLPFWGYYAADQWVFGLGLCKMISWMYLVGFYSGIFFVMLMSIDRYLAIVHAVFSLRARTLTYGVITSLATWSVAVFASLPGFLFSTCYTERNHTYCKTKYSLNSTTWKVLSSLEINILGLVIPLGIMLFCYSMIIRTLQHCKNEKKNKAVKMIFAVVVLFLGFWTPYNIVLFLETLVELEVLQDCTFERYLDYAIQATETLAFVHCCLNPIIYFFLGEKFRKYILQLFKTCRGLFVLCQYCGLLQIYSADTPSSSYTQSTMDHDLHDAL

hCCR2b (human) = hCCR2b (human) (UniProt P41597)
hCXCR3 (human) [3] = target: hCXCR3 (human) (UniProt P49682); remark: listed apart in the source
hCCR10 = target: T4, hCCR10 (human, UniProt P46092 1-362)
T4 sequence (looked up): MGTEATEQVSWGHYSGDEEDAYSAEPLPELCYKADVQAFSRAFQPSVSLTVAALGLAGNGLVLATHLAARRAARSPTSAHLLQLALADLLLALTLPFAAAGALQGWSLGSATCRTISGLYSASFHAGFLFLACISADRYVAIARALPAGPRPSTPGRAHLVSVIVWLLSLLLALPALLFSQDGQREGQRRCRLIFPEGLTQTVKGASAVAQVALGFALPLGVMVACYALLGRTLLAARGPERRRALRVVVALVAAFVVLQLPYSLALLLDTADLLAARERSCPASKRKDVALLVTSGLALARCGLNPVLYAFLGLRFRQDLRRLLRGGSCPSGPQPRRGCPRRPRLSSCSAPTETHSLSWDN

hCCR9 (human), sequence (P51686 whole entry): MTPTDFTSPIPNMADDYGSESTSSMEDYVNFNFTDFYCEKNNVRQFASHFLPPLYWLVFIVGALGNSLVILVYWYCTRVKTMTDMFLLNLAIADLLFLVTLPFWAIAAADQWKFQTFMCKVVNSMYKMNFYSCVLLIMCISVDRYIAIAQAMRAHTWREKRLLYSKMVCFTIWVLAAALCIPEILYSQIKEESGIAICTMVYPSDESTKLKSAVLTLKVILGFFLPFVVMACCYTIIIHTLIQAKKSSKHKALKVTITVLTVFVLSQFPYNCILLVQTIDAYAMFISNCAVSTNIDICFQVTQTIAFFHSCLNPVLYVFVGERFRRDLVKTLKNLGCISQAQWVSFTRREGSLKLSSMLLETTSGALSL
hCXCR3 (human), sequence (P49682 whole entry): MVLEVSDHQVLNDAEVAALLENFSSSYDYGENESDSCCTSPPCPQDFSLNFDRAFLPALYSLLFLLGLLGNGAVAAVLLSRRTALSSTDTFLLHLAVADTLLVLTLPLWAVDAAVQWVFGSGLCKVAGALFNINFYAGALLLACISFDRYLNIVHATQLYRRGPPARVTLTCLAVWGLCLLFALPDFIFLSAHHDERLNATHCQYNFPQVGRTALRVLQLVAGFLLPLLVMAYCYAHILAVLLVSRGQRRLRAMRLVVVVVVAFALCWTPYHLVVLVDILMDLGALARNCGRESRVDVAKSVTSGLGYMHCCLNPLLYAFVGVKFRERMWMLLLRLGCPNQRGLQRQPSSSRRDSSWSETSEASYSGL
hCCR2b (human), sequence (P41597 other isoform, or with tags, fused parts or gaps limits assumed): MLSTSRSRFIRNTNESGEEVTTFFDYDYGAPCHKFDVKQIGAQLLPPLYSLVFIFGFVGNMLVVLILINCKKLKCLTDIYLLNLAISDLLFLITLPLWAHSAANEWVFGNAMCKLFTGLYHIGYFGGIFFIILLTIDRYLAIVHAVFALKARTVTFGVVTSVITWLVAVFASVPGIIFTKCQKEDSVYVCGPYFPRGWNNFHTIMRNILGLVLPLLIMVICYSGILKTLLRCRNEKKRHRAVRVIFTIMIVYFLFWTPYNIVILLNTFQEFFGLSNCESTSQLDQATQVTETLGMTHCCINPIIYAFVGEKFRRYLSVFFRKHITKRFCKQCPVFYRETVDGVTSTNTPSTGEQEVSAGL
hCCR7 (human), sequence (P32248 25-378 limits assumed): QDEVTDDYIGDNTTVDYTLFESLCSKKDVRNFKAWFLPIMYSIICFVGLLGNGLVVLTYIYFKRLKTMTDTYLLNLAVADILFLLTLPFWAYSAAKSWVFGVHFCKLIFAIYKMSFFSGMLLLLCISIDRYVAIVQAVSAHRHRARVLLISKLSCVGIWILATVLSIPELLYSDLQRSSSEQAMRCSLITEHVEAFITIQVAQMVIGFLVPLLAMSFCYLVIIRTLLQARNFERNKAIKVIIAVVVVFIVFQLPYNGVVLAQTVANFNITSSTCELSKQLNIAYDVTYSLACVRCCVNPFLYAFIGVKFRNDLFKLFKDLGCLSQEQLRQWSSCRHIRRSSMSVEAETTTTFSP

Molecule: recombinant native MIP-3β (from UniProt Q99731 22-98) (ligand)
- EC50, Aequorin assay (agonist activity) (hCCR7 (human)): 1.6 nM

Molecule: biotinylated MIP-3alpha coupled matrix (from UniProt P78556 27-96) (ligand)
- reduction of CCR6-expressing cells after column passage (flow cytometry) [1]: < 15%

Molecule: recombinant native MIP-3α (from UniProt P78556 27-96) (ligand)
- EC50, Aequorin assay (agonist activity) (hCCR6 (human)): 1 nM

Molecule: recombinant native IP-10 (from UniProt P02778 22-98) (ligand)
- EC50, Aequorin assay (agonist activity) (hCXCR3 (human) [2]): 4.4 nM

Molecule: recombinant native TECK (from UniProt O15444 24-150) (ligand)
- EC50, Aequorin assay (agonist activity) (hCCR9 (human)): 67.9 nM

Molecule: biotinTECK(Met to Nleu substitution) (CCL25), derivatised at the ε-amino side chain functionality of Lys72 with PEG-Biotin (from UniProt O15444 25-97) (ligand)
- EC50, Aequorin assay (agonist activity) (hCCR9 (human)): 63.6 nM

Molecule: recombinant native TARC (from UniProt Q92583 24-94) (ligand)
- EC50, Aequorin assay (agonist activity) (hCCR4): 2.6 nM

Molecule: recombinant native MCP-2 (from UniProt P80075 24-99) (ligand)
- EC50, Aequorin assay (partial agonist) (hCCR2b (human)): 23.5 nM

B1: recombinant native ITAC (ligand, UniProt O14625 22-94, looked up)
chain: FPMFKRGRCLCIGPGVKAVKVADIEKASIMYPSNNCDKIEVIITLKENKGQRCLNPKSKQARLIIKKVERKNF
- EC50, Aequorin assay (agonist activity) (hCXCR3 (human) [3]): 0.7 nM

B2: biotinTARC (CCL17), TARC derivatised at the ε-amino side chain functionality of Lys(72) with PEG-Biotin (ligand)
chain: ARGTNVGRECCLEYFKGAIPLRKLKTWYQTSEDCSRDAIVFVTVQGRAICSDPNNKRVKNAVKYLQSLERSK([AEEA-Biotin])-NH2
modifications: disulfide 10-34, 11-50; ends not checked; also: TFA salt
- EC50, Aequorin assay (agonist activity) (hCCR4): 3.1 nM

B3: recombinant native CTAC (ligand, UniProt Q9Y4X3 25-112, looked up)
chain: FLLPPSTACCTQLYRKPLSDKLLRKVIQVELQEADGDCHLQAFVLHLAQRSICIHPQNPSLSQWFEHQERKLHGTLPKLNFGMLRKMG
- EC50, Aequorin assay (agonist activity) (hCCR10): 33.5 nM

B4: biotinCTAC (CCL27), CTAC derivatised at the ε-amino side chain functionality of Lys(87) with PEG-Biotin (ligand)
chain: FLLPPSTACCTQLYRKPLSDKLLRKVIQVELQEADGDCHLQAFVLHLAQRSICIHPQNPSLSQWFEHQERKLHGTLPKLNFGMLRKK([AEEA-Biotin])G-OH
modifications: disulfide 10-53, 9-38; ends not checked; also: TFA salt
- EC50, Aequorin assay (agonist activity) (hCCR10): 49.4 nM

B5: recombinant native MDC (ligand, UniProt O00626 25-93, looked up)
chain: GPYGANMEDSVCCRDYVRYRLPLRVVKHFYWTSDSCPRPGVVLLTFRDKEICADPRVPWVKMILNKLSQ
- EC50, Aequorin assay (agonist activity) (hCCR4): 3.6 nM
